According to paper PMC10685657:

Biological target: HA-TRIP12
Test: co-IP (IP-GFP, immunoblot for TRIP12; band intensity printed above lanes)
Settings: HEK293T cells, harvested for lysis 48 h after transfection; HA-TRIP12 co-transfected

GFP-EZH2 wildtype (from UniProt Q15910) K634R
ratio to parent: 0.16
